From US20220169677A1 (INSERM INSTITUT NATIONAL DE LA SANTE ET DE LA RECHERCHE …, published 2022)

T1: recombinant human NRP-1 (human, UniProt O14786-2 22-644, limits assumed)
T1 construct: Coated on a 96-well plate at 200 ng/well; GenBank AAC51759.1 is printed only as the preferred definition of NRP-1; also called Neuropilin-1
T1 sequence (looked up): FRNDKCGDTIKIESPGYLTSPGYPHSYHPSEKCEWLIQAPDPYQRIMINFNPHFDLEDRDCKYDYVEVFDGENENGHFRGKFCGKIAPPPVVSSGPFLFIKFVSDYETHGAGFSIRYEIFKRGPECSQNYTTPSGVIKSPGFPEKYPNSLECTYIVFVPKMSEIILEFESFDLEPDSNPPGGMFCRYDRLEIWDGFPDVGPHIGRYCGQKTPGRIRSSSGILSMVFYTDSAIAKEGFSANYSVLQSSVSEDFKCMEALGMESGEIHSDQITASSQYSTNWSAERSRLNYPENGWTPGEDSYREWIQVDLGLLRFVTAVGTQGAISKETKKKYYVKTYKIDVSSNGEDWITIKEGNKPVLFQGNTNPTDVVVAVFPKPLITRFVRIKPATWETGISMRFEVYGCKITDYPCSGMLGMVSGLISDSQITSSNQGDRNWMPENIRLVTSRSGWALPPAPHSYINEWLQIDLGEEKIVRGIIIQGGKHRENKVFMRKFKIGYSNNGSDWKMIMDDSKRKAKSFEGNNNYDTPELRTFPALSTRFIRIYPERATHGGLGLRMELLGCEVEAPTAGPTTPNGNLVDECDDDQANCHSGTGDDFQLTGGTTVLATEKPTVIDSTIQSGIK

B1: KPRR (peptide derived from the VEGF-A165) (peptide)
peptide: KPRR
notes: Parent tetrapeptide without Cys; 5
B2: LPPR (active part of A7R) (peptide)
peptide: LPPR
notes: Parent tetrapeptide without Cys; 3
B3: H2N-Cys-Thr-Lys-Pro-Arg-OH (peptide)
peptide: H-CTKPR-OH
notes: TKPR (tuftsin) with an added N-terminal Cys; also called CTKPR
B4: H2N-Cys-Leu-Pro-Pro-Arg-OH (peptide)
peptide: H-CLPPR-OH
notes: LPPR (active part of A7R) with an added N-terminal Cys; also called CLPPR
B5: H2N-Cys-Lys-Pro-Arg-Arg-OH (peptide)
peptide: H-CKPRR-OH
notes: KPRR (peptide derived from the VEGF-A165 C-terminus) with an added N-terminal Cys; also called CKPRR

Each molecule was assayed against T1, recombinant human NRP-1 (assay: competition: inhibition of (bt)-VEGF-A165 binding to coated NRP-1).
In the case of B1, the IC50 is reported as 4500 nM.
B2 was tested, and the IC50 was 80000 nM.

Each molecule was assayed against T1, recombinant human NRP-1 (assay: chemiluminescence competition: inhibition of (bt)-VEGF-A165 binding to coated NRP-1).
Protocol: The flat bottom surface of a 96-well plate was coated with 100 μL (200 ng/well) recombinant human NRP-1 and incubated overnight at 4° C. Non-specific binding was blocked by the incubation with 0.5% BSA in PBS. 50 μL of peptide dissolved in PBS in range concentrations and 50 μL (400 ng/mL) of human (bt)-VEGF-A₁₆₅ in PBS containing 4 μg/mL of heparin were added respectively. After 2 h incubation at room temperature the plate was washed and treated with streptavidin-horseradish peroxidase conjugate in PBS (1:8000). Chemiluminescence was quantified immediately after addition of 100 μL Chemiluminescent substrate. In a positive control only (bt)-VEGF-A₁₆₅ was present in wells, while, in negative control, wells were not coated by NRP-1. Percentages of inhibition were calculated by the following formula: […]
For “H-Cys-Lys(hArg)-Dab-Oic-Arg-OH (peptide)”, the IC50 was 50 nM and the fold decrease in IC50 against the sequence without cysteine was 100 fold.
Work on “H-Cys-Lys(hArg)-Dab-ΔPro-Arg-OH (peptide)” yielded an IC50 of 70 nM and a fold decrease in IC50 against the sequence without cysteine of 100 fold.
“H-Lys(Cys-hArg)-Dab-Oic-Arg-OH (peptide)” gave an IC50 of 40 nM and a fold decrease in IC50 against the sequence without cysteine of 100 fold.
With “H-Lys(Cys-hArg)-Dab-ΔPro-Arg-OH (peptide)” the IC50 was 60 nM and the fold decrease in IC50 against the sequence without cysteine was 100 fold.
B3 showed an IC50 of 19000 nM.
B4 was tested, and the IC50 was 17000 nM.
B5 was tested, and the IC50 was 100 nM.
